In patent US20050004353A1 (Amgen, published 2005):
Where a chain is given by its changes, count along the chain named. Values joined by “and” are separate entries in the source; they are usually repeats but may differ in a detail not shown here. Identical values can stand only once.

How the values were obtained:
[1] = molecular target: T1, human interferon-gamma (IFN-γ) (human, UniProt P01579 24-161); assay: cell-based or functional assay
T1 sequence (looked up): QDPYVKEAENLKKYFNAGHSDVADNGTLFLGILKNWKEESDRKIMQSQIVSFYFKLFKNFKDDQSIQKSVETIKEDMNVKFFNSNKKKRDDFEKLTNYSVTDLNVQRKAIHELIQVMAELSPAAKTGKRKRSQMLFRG

[2] = molecular target: T1, human interferon-gamma (IFN-γ); assay: ELISA on plates coated with recombinant IFN-γ, antibody purified from hybridoma supernatant
[3] = molecular target: T2, huIFN-γR34 (human, UniProt P01579 24-161); assay: cell-based or functional assay
T2 sequence (looked up): T1 sequence (looked up) with K34R

[4] = molecular target: T3, huIFN-γI126 (human, UniProt P01579 24-161); assay: cell-based or functional assay
T3 sequence (looked up): T1 sequence (looked up) with T126I

[5] = molecular target: T4, huIFN-γP20 (human, UniProt P01579 24-161); assay: cell-based or functional assay
T4 sequence (looked up): T1 sequence (looked up) with S20P

[6] = molecular target: T5, huIFN-γV110 (human, UniProt P01579 24-161); assay: cell-based or functional assay
T5 sequence (looked up): T1 sequence (looked up) with I110V

[7] = molecular target: T6, huIFN-γD19 (human, UniProt P01579 24-161); assay: cell-based or functional assay
T6 sequence (looked up): T1 sequence (looked up) with H19D

[8] = molecular target: T7, huIFN-γS103 (human, UniProt P01579 24-161); assay: cell-based or functional assay
T7 sequence (looked up): T1 sequence (looked up) with L103S

[9] = molecular target: T8, cynomolgus monkey IFN-γ (cynomolgus monkey, UniProt P63309 24-165); assay: cell-based or functional assay
T8 sequence (looked up): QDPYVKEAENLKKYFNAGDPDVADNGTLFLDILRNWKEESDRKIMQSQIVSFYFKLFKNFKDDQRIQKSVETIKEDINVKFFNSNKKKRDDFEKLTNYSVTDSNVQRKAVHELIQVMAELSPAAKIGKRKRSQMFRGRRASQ

[10] = molecular target: T9, huIFN-γI77 (human, UniProt P01579 24-161); assay: cell-based or functional assay
T9 sequence (looked up): T1 sequence (looked up) with M77I

[11] = molecular target: T10, huIFN-γD31 (human, UniProt P01579 24-161); assay: cell-based or functional assay
T10 sequence (looked up): T1 sequence (looked up) with G31D

[12] = molecular target: T11, huIFN-γR65 (human, UniProt P01579 24-161); assay: cell-based or functional assay
T11 sequence (looked up): T1 sequence (looked up) with S65R

[13] = molecular target: T1, human interferon-gamma (IFN-γ); assay: equilibrium-binding assay in solution, free antibody captured on IFN-γ coupled beads, KinExA
Procedure: Binding kinetics for several of the antibodies to IFN-γ were measured by BIAcore analysis. […] Accordingly, an equilibrium-binding assay was developed and used. A fixed amount of antibody was incubated with various concentrations of IFN-γ for greater than 5 hours in order to reach equilibrium and then contacted with IFN-γ coupled beads for a very brief time, and the amount of free antibody that bound to the beads was measured in a KINEXA™ machine (Sapidyne Instruments Inc., Boise, Id.), a fluorescence based immunoassay instrument. The lowest equilibrium dissociation constant obtained, ˜24 pM, was with the 1119 antibody.

B1: 1121 anti-IFN-γ antibody (antibody, V domains shown)
VH: EVQLVQSGAEVKKPGESLKISCKGSGYNFTSYWIGWVRQMPGKGLEWMGIIYPGDSDTRYSPSFQGQVTISADKSISTAYLQWSSLKASDTAMYYCGSGSYWYFDLWGRGTLVTVSS
VL: EIVLTQSPGTLSLSPGERATLSCRASQSVSSSYLAWYQQKPGQAPRLLIYGASSRATGIPDRFSGSGSGTDFTLTISRLEPEDFAVYYCQRSGGSSFTFGPGTKVDIKR
For B1, the “IC50, A549 bioassay (inhibition of the anti-proliferative effect of IFN-γ, 30 pM IFN-γ)” value [1] was 46 pM and the “IC50, THP-1/HLA DR bioassay (21 pM IFN-γ)” value (“IC50, THP-1/HLA DR bioassay” below) [1] was 60 pM.

B2: 1121* anti-IFN-γ antibody (antibody, human IgG1, kappa, V domains shown)
VH: B1 VH
VL: EIVLTQSPGTLSLSPGERATLSCRASQSIISSYLAWYQQKPGQTPRLLIYGVSSRATGIPDRFSGSGSGTDFTLTITRLEPEDFAVYYCQQYGNSFMYTFGQGTKLEIKR
notes: the ELISA used antibody purified from hybridoma supernatant
B2: binds [2].

B3: 1119 anti-IFN-γ antibody (antibody, human IgG1, kappa, V domains shown)
VH: B1 VH with W47L, W102F
VL: B1 VL
notes: also called 1119 antibody; 1119 mAb
In the case of B3, the “% Neutralization by 1119 (A549 bioassay)” value [3] is reported as 109%, the “% Neutralization by 1119 (A549 bioassay)” value [4] is reported as 109% and the “% Neutralization by 1119 (A549 bioassay)” value [5] is reported as 0%. For the same binder, the “% Neutralization by 1119 (A549 bioassay)” value [6] was 103%, the “% Neutralization by 1119 (A549 bioassay)” value [7] was 0% and the “% Neutralization by 1119 (A549 bioassay)” value [8] was 102%. For the same binder, the “% Neutralization by 1119 (A549 bioassay)” value [9] was 0%, the “% Neutralization by 1119 (A549 bioassay)” value [10] was 108% and the “% Neutralization by 1119 (A549 bioassay)” value [11] was 103%. For the same binder, the “% Neutralization by 1119 (A549 bioassay)” value [12] was 109%, the “IC50, A549 bioassay (inhibition of the anti-proliferative effect of IFN-γ, 30 pM IFN-γ)” value [1] was 14 pM and the “IC50, THP-1/HLA DR bioassay” value [1] was 14 pM. The “IC50, human whole blood bioassay (IFN-γ-induced IP-10 production), one of two donors” value [1] was 17 pM and 14 pM and the Kd [13] was about 24 pM.

B4: 1118 anti-IFN-γ antibody (antibody, V domains shown)
VH: B1 VH with N28S
VL: B1 VL with Y33S
In the case of B4, the “IC50, A549 bioassay (inhibition of the anti-proliferative effect of IFN-γ, 30 pM IFN-γ)” value [1] is reported as 97 pM and the “IC50, THP-1/HLA DR bioassay” value [1] is reported as 86 pM.
